Test results as given in patent publication US20180016354A1 (Merck KGaA, published 2018).

target: T1, EGFR (on EGFR-expressing A431 cells) (UniProt P00533 25-1210, limits assumed); test: flow cytometry on A431 cells
T1 construct: whole, on cells; A431 is a human cell line; also called EGFR-positive cells; EGFR-overexpressing A431 cells

binding result	Binder
binds	Domain-exchanged one-armed anti-EGFR antibody (CH3-KiH domain-exchanged hu425 Fab on SEED AG heavy chain, with huFc_GA SEED) (antibody, One Fab arm only (monovalent); also called One-armed CH3 domain-exchanged anti-EGFR antibody; one-armed domain-exchanged anti-EGFR antibody) heavy: QVQLVQSGAEVKKPGASVKVSCKASGYTFTSHWMHWVRQAPGQGLEWIGEFNPSNGRTNYNEKFKSKATMTVDTSTNTAYMELSSLRSEDTAVYYCASRDYDYDGRYFDYWGQGTLVTVSSASTKGEPQVYTLPPSRDELTKNQVSLYCLVKGFYPSDIAVEWESNGQPENNYKTTPPVLDSDGSFFLYSKLTVDKSRWQQGNVFSCSVMHEALHNHYTQKSLSLSKSCDKTHTCPPCPAPELLGGPSVFLFPPKPKDTLMISRTPEVTCVVVDVSHEDPEVKFNWYVDGVEVHNAKTKPREEQYNSTYRVVSVLTVLHQDWLNGKEYKCKVSNKALPAPIEKTISKAKGQPFRPEVHLLPPSREEMTKNQVSLTCLARGFYPKDIAVEWESNGQPENNYKTTPSRQEPSQGTTTFAVTSKLTVDKSRWQQGNVFSCSVMHEALHNHYTQKTISLSPGK EPKSSDKTHTCPPCPAPELLGGPSVFLFPPKPKDTLMISRTPEVTCVVVDVSHEDPEVKFNWYVDGVEVHNAKTKPREEQYNSTYRVVSVLTVLHQDWLNGKEYKCKVSNKALPAPIEKTISKAKGQPREPQVYTLPPPSEELALNELVTLTCLVKGFYPSDIAVEWLQGSQELPREKYLTWAPVLDSDGSFFLYSILRVAAEDWKKGDTFSCSVMHEALHNHYTQKSLDRSPGK light: DIQMTQSPSSLSASVGDRVTITCSASSSVTYMYWYQQKPGKAPKLLIYDTSNLASGVPSRFSGSGSGTDYTFTISSLQPEDIATYYCQQWSSHIFTFGQGTKVEIKRTVAEPQVYTLPPSRDELTKNQVSLTCLVKGFYPSDIAVEWESNGQPENNYKTTPPVLDSDGSFFLTSKLTVDKSRWQQGNVFSCSVMHEALHNHYTQKSLSLSGEC
binds	one-armed anti-EGFR SEED antibody with Charge pair CH3 domain-exchanged Fab, Variant 1 (antibody, hu425 Fv; one Fab arm only; also called Charge pair variant 1) heavy: QVQLVQSGAEVKKPGASVKVSCKASGYTFTSHWMHWVRQAPGQGLEWIGEFNPSNGRTNYNEKFKSKATMTVDTSTNTAYMELSSLRSEDTAVYYCASRDYDYDGRYFDYWGQGTLVTVSSASTKGEPQVYTLPPSRKEMTKNQVSLTCLVKGFYPSDIAVEWESNGQPENNYKTTPPVLKSDGSFFLYSKLTVDKSRWQQGNVFSCSVMHEALHNHYTQKSLSLSKSCDKTHTCPPCPAPELLGGPSVFLFPPKPKDTLMISRTPEVTCVVVDVSHEDPEVKFNWYVDGVEVHNAKTKPREEQYNSTYRVVSVLTVLHQDWLNGKEYKCKVSNKALPAPIEKTISKAKGQPFRPEVHLLPPSREEMTKNQVSLTCLARGFYPKDIAVEWESNGQPENNYKTTPSRQEPSQGTTTFAVTSKLTVDKSRWQQGNVFSCSVMHEALHNHYTQKTISLSPGK light: DIQMTQSPSSLSASVGDRVTITCSASSSVTYMYWYQQKPGKAPKLLIYDTSNLASGVPSRFSGSGSGTDYTFTISSLQPEDIATYYCQQWSSHIFTFGQGTKVEIKRTVAEPQVYTLPPSREEMTKNQVSLTCLVKGFYPSDIAVEWESNGQPENNYDTTPPVLDSDGSFFLYSDLTVDKSRWQQGNVFSCSVMHEALHNHYTQKSLSLSGEC EPKSSDKTHTCPPCPAPELLGGPSVFLFPPKPKDTLMISRTPEVTCVVVDVSHEDPEVKFNWYVDGVEVHNAKTKPREEQYNSTYRVVSVLTVLHQDWLNGKEYKCKVSNKALPAPIEKTISKAKGQPREPQVYTLPPPSEELALNELVTLTCLVKGFYPSDIAVEWLQGSQELPREKYLTWAPVLDSDGSFFLYSILRVAAEDWKKGDTFSCSVMHEALHNHYTQKSLDRSPGK
binds	one-armed anti-EGFR SEED antibody with Azymetric CH3 domain-exchanged Fab, Variant 2 (antibody, hu425 Fv; one Fab arm only; also called hu425 CH3-Azymmetric variant 2) heavy: QVQLVQSGAEVKKPGASVKVSCKASGYTFTSHWMHWVRQAPGQGLEWIGEFNPSNGRTNYNEKFKSKATMTVDTSTNTAYMELSSLRSEDTAVYYCASRDYDYDGRYFDYWGQGTLVTVSSASTKGEPQVYVLPPSREEMTKNQVSLLCLVKGFYPSDIAVEWESNGQPENNYLTWPPVLDSDGSFFLYSKLTVDKSRWQQGNVFSCSVMHEALHNHYTQKSLSLSKSCDKTHTCPPCPAPELLGGPSVFLFPPKPKDTLMISRTPEVTCVVVDVSHEDPEVKFNWYVDGVEVHNAKTKPREEQYNSTYRVVSVLTVLHQDWLNGKEYKCKVSNKALPAPIEKTISKAKGQPFRPEVHLLPPSREEMTKNQVSLTCLARGFYPKDIAVEWESNGQPENNYKTTPSRQEPSQGTTTFAVTSKLTVDKSRWQQGNVFSCSVMHEALHNHYTQKTISLSPGK light: DIQMTQSPSSLSASVGDRVTITCSASSSVTYMYWYQQKPGKAPKLLIYDTSNLASGVPSRFSGSGSGTDYTFTISSLQPEDIATYYCQQWSSHIFTFGQGTKVEIKRTVAEPQVYVYPPSREEMTKNQVSLTCLVKGFYPSDIAVEWESNGQPENNYKTTPPVLDSDGSFALVSKLTVDKSRWQQGNVFSCSVMHEALHNHYTQKSLSLSGEC EPKSSDKTHTCPPCPAPELLGGPSVFLFPPKPKDTLMISRTPEVTCVVVDVSHEDPEVKFNWYVDGVEVHNAKTKPREEQYNSTYRVVSVLTVLHQDWLNGKEYKCKVSNKALPAPIEKTISKAKGQPREPQVYTLPPPSEELALNELVTLTCLVKGFYPSDIAVEWLQGSQELPREKYLTWAPVLDSDGSFFLYSILRVAAEDWKKGDTFSCSVMHEALHNHYTQKSLDRSPGK
binds	one-armed anti-EGFR SEED antibody with Charge pair CH3 domain-exchanged Fab, Variant 2 (antibody, hu425 Fv; one Fab arm only; also called Charge pair variant 2) heavy: QVQLVQSGAEVKKPGASVKVSCKASGYTFTSHWMHWVRQAPGQGLEWIGEFNPSNGRTNYNEKFKSKATMTVDTSTNTAYMELSSLRSEDTAVYYCASRDYDYDGRYFDYWGQGTLVTVSSASTKGEPQVYTLPPSREEMTKNQVSLTCLVKGFYPSDIAVEWESNGQPENNYDTTPPVLDSDGSFFLYSDLTVDKSRWQQGNVFSCSVMHEALHNHYTQKSLSLSKSCDKTHTCPPCPAPELLGGPSVFLFPPKPKDTLMISRTPEVTCVVVDVSHEDPEVKFNWYVDGVEVHNAKTKPREEQYNSTYRVVSVLTVLHQDWLNGKEYKCKVSNKALPAPIEKTISKAKGQPFRPEVHLLPPSREEMTKNQVSLTCLARGFYPKDIAVEWESNGQPENNYKTTPSRQEPSQGTTTFAVTSKLTVDKSRWQQGNVFSCSVMHEALHNHYTQKTISLSPGK light: DIQMTQSPSSLSASVGDRVTITCSASSSVTYMYWYQQKPGKAPKLLIYDTSNLASGVPSRFSGSGSGTDYTFTISSLQPEDIATYYCQQWSSHIFTFGQGTKVEIKRTVAEPQVYTLPPSRKEMTKNQVSLTCLVKGFYPSDIAVEWESNGQPENNYKTTPPVLKSDGSFFLYSKLTVDKSRWQQGNVFSCSVMHEALHNHYTQKSLSLSGEC EPKSSDKTHTCPPCPAPELLGGPSVFLFPPKPKDTLMISRTPEVTCVVVDVSHEDPEVKFNWYVDGVEVHNAKTKPREEQYNSTYRVVSVLTVLHQDWLNGKEYKCKVSNKALPAPIEKTISKAKGQPREPQVYTLPPPSEELALNELVTLTCLVKGFYPSDIAVEWLQGSQELPREKYLTWAPVLDSDGSFFLYSILRVAAEDWKKGDTFSCSVMHEALHNHYTQKSLDRSPGK
binds	one-armed anti-EGFR SEED antibody with KiH2 CH3 domain-exchanged Fab, Variant 1 (antibody, hu425 Fv; one Fab arm only; also called KiH2 variant 1) heavy: QVQLVQSGAEVKKPGASVKVSCKASGYTFTSHWMHWVRQAPGQGLEWIGEFNPSNGRTNYNEKFKSKATMTVDTSTNTAYMELSSLRSEDTAVYYCASRDYDYDGRYFDYWGQGTLVTVSSASTKGEPQVYTLPPSRDELTKNQVSLWCLVKGFYPSDIAVEWESNGQPENNYKTTPPVLDSDGSFFLYSKLTVDKSRWQQGNVFSCSVMHEALHNHYTQKSLSLSKSCDKTHTCPPCPAPELLGGPSVFLFPPKPKDTLMISRTPEVTCVVVDVSHEDPEVKFNWYVDGVEVHNAKTKPREEQYNSTYRVVSVLTVLHQDWLNGKEYKCKVSNKALPAPIEKTISKAKGQPFRPEVHLLPPSREEMTKNQVSLTCLARGFYPKDIAVEWESNGQPENNYKTTPSRQEPSQGTTTFAVTSKLTVDKSRWQQGNVFSCSVMHEALHNHYTQKTISLSPGK light: DIQMTQSPSSLSASVGDRVTITCSASSSVTYMYWYQQKPGKAPKLLIYDTSNLASGVPSRFSGSGSGTDYTFTISSLQPEDIATYYCQQWSSHIFTFGQGTKVEIKRTVAEPQVYTLPPSRDELTKNQVSLSCAVKGFYPSDIAVEWESNGQPENNYKTTPPVLDSDGSFFLVSKLTVDKSRWQQGNVFSCSVMHEALHNHYTQKSLSLSGEC EPKSSDKTHTCPPCPAPELLGGPSVFLFPPKPKDTLMISRTPEVTCVVVDVSHEDPEVKFNWYVDGVEVHNAKTKPREEQYNSTYRVVSVLTVLHQDWLNGKEYKCKVSNKALPAPIEKTISKAKGQPREPQVYTLPPPSEELALNELVTLTCLVKGFYPSDIAVEWLQGSQELPREKYLTWAPVLDSDGSFFLYSILRVAAEDWKKGDTFSCSVMHEALHNHYTQKSLDRSPGK
binds	one-armed anti-EGFR SEED antibody with Azymetric CH3 domain-exchanged Fab, Variant 1 (antibody, hu425 Fv; one Fab arm only; also called hu425 CH3-Azymmetric variant 1) heavy: QVQLVQSGAEVKKPGASVKVSCKASGYTFTSHWMHWVRQAPGQGLEWIGEFNPSNGRTNYNEKFKSKATMTVDTSTNTAYMELSSLRSEDTAVYYCASRDYDYDGRYFDYWGQGTLVTVSSASTKGEPQVYVYPPSREEMTKNQVSLTCLVKGFYPSDIAVEWESNGQPENNYKTTPPVLDSDGSFALVSKLTVDKSRWQQGNVFSCSVMHEALHNHYTQKSLSLSKSCDKTHTCPPCPAPELLGGPSVFLFPPKPKDTLMISRTPEVTCVVVDVSHEDPEVKFNWYVDGVEVHNAKTKPREEQYNSTYRVVSVLTVLHQDWLNGKEYKCKVSNKALPAPIEKTISKAKGQPFRPEVHLLPPSREEMTKNQVSLTCLARGFYPKDIAVEWESNGQPENNYKTTPSRQEPSQGTTTFAVTSKLTVDKSRWQQGNVFSCSVMHEALHNHYTQKTISLSPGK light: DIQMTQSPSSLSASVGDRVTITCSASSSVTYMYWYQQKPGKAPKLLIYDTSNLASGVPSRFSGSGSGTDYTFTISSLQPEDIATYYCQQWSSHIFTFGQGTKVEIKRTVAEPQVYVLPPSREEMTKNQVSLLCLVKGFYPSDIAVEWESNGQPENNYLTWPPVLDSDGSFFLYSKLTVDKSRWQQGNVFSCSVMHEALHNHYTQKSLSLSGEC EPKSSDKTHTCPPCPAPELLGGPSVFLFPPKPKDTLMISRTPEVTCVVVDVSHEDPEVKFNWYVDGVEVHNAKTKPREEQYNSTYRVVSVLTVLHQDWLNGKEYKCKVSNKALPAPIEKTISKAKGQPREPQVYTLPPPSEELALNELVTLTCLVKGFYPSDIAVEWLQGSQELPREKYLTWAPVLDSDGSFFLYSILRVAAEDWKKGDTFSCSVMHEALHNHYTQKSLDRSPGK
